For assay [1], the target named is T1, human IL-4Rα HIS FLAG (in house HEK-EBNA derived) (human, biotinylated where used as the labelled partner in the DELFIA assay).
T1 construct: also called HuIL-4Rα; Human IL4-Rα/FLAG/HIS tag
T1 chain: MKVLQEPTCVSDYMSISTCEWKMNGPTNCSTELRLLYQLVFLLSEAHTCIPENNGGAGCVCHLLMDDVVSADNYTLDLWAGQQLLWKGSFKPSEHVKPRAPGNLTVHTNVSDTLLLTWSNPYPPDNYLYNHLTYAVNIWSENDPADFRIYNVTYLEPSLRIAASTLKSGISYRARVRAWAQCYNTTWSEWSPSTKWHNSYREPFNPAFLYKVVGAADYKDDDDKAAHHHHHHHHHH
Description: SPR (BIAcore 2000), IgG captured on Protein G', receptor as analyte, 1:1 Langmuir. The procedure:
(§1) In brief, Protein G′ (Sigma Aldrich, P4689) was covalently coupled to the surface of a CM5 sensor chip using standard amine coupling reagents according to manufacturer's instructions (BIAcore). This Protein G′ surface was used to capture a constant amount of purified anti-IL4R• antibodies or isotype control via the Fc domain. Human or cynomolgus IL-4R• HIS FLAG prepared in HBS-EP buffer (BIAcore AB), at a range of concentrations, between 100 nM and 0.2 nM, were passed over the sensor chip surface. […] The resulting sensorgrams were evaluated using BIA evaluation 4.1 software and fitted to 1:1 Langmuir binding model, to provide the relative binding data. The experiments were performed over the course of at least three separate days to calculate an average monovalent affinity.

The target in assay [2] is T2, cynomolgus IL-4Rα HIS FLAG (cynomolgus).
T2 construct: also called Cyno IL4Rα HIS FLAG; not shown: HIS and FLAG tags and any vector-encoded linker of the cynomolgus HIS FLAG construct
T2 chain: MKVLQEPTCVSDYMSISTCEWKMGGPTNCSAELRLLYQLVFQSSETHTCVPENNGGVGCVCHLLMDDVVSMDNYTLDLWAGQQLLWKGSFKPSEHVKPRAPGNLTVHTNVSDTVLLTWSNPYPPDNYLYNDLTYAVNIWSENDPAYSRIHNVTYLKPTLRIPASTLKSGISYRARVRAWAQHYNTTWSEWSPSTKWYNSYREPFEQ
Described as above. The procedure:
as §1

Assay [3] addresses T3, human IL-13Rα1 Fc (R & D Systems, 146-IR-100) (human, UniProt P78552 27-343, limits assumed).
T3 construct: bought protein; not shown: Fc part of the bought fusion
T3 sequence (looked up): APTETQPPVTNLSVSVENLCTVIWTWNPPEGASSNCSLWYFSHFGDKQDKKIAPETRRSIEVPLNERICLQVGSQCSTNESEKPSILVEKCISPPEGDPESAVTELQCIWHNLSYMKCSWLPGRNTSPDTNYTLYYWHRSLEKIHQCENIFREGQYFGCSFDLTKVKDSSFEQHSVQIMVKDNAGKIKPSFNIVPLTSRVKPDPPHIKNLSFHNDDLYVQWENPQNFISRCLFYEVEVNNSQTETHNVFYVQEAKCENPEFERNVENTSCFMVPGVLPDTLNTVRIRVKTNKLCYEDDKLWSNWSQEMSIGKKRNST
The experiment in a line: DELFIA epitope competition, no inhibition of biotinylated human IL-4Rα HIS FLAG binding to immobilised IgG. The procedure: (§2) Titrations of IL-4R• species including cynomolgus IL-4R• HIS Fc (in house HEK-EBNA derived), human IL-4R• 175V Fc (AstraZeneca), human IL-4R• Fc and murine IL-4R• (both R & D Systems) were tested in each assay to establish the species cross-reactivity of the antibodies. Unbiotinylated human IL-4R• HIS FLAG was used as a positive control. Human and cynomolgus IL-4R• HIS Fc, along with Human IL-4R• 175V Fc, produced overlapping inhibition curves with […] IC₅₀ values. […] Details of the protocol are provided in the Materials and Methods section 4.6.1.
(§3) Purified IgG were adsorbed onto 96-well Maxisorp microtitre plates (Nunc) in PBS at a concentration which gave a significant signal when biotinylated human IL-4R• HIS FLAG was added at approximately its estimated KD for that particular IgG. Excess IgG was washed away with PBS-Tween (0. 1% v/v) and the wells were blocked with PBS-Marvel (3% w/v) for 1 h. […] Unbiotinylated human IL-4R• HIS FLAG was used as a positive control. […] These mixtures were then transferred onto the blocked IgG and allowed to equilibrate for 1.5 h. Unbound antigen was removed by washing with PBS-Tween (0.1% v/v), while the remaining biotinylated human IL-4R• was detected by streptavidin-Europium3+ conjugate (DELFIA• detection, PerkinElmer).

For assay [4], the target named is T4, Human common gamma chain (sIL-2Rγ) (R & D Systems 384-RG-050-CF) (human, UniProt P31785 23-254).
T4 construct: bought protein; also called common gamma chain (IL-2Rγ)
T4 sequence (looked up): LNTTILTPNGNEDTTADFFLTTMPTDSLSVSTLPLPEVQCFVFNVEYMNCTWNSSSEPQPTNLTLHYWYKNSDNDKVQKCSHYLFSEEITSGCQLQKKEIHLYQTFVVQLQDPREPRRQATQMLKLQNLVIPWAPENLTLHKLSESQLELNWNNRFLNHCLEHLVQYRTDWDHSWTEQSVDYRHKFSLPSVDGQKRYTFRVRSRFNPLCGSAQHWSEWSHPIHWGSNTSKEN
Described as above. The procedure: as §2, §3

Assay [5] has as its target T5, murine IL4Rα Fc (R & D Systems 530-MR-100) (murine, UniProt P16382 26-233, limits assumed).
T5 construct: bought protein; not shown: Fc part of the bought fusion
T5 sequence (looked up): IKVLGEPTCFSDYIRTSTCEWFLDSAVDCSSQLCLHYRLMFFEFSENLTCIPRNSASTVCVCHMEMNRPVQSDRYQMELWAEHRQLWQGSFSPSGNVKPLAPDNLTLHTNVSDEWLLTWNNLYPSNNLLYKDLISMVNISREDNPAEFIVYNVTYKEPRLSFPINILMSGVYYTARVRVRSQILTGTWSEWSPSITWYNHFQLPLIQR
The assay is described as above. The procedure: as §2, §3

In assay [6] the target is T6, human IL-13Rα2 Fc (R & D Systems, 614-IR-100) (human, UniProt Q14627 27-343, limits assumed).
T6 construct: bought protein; not shown: Fc part of the bought fusion
T6 sequence (looked up): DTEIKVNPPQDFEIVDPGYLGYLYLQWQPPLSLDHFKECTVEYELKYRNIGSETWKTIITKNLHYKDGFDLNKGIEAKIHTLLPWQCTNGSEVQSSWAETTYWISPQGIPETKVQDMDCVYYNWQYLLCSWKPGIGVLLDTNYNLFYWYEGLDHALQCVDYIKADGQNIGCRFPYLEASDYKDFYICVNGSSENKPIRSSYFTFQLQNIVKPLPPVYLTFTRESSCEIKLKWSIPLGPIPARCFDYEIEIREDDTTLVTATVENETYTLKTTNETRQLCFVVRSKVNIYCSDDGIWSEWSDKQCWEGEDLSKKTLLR
The assay is described as above. The procedure:
as §2, §3

In assay [7] the target is T1, human IL-4Rα HIS FLAG (in house …). The experiment in a line: SPR (BIAcore 2000), value in parentheses under the mean, taken as a single determination. As to the method:
as §1

The target in assay [8] is T2, cynomolgus IL-4Rα HIS FLAG. Described as above. The procedure:
as §1

Values joined by “and” are separate entries in the source; they are usually repeats but may differ in a detail not shown here. Equal entries are not always repeated.

B1: Antibody 37GL IgG (antibody, V domains shown)
VH: QVQLVQSGAEVKKPGASVKVSCKASGYAFTSYYMHWVRQAPGQGLEWMGIINPRGGSTSYAQKFQGRVTMTRDTSTSTVYMELSSLRSEDTAVYYCARGKYWMYDWGKGTLVTVSS
VL: QSVLTQPPSVSAAPGQKVTISCSGGGSSIGNSYVSWYQQLPGTAPKLLIYDNNKRPSGIPDRFSGSKSGTSATLGITGLQTGDEADYYCGTWDTSPVWEWPFGTGTKLTVL
notes: germlined IgG; also called Antibody 37 (FGL)
As to B1, the Kd in assay [1] was 0.504 nM; in assay [2] it was 4.41 nM; in assay [7] it was 0.533 nM and 0.531 nM and 0.459 nM; in assay [8] it was 4.67 nM and 4.34 nM and 4.41 nM. Further, the koff was determined as 0.000346 s⁻¹ in assay [1] and 0.00108 s⁻¹ in assay [2]. In addition, the kon in assay [1] stood at 688000 M⁻¹ s⁻¹; in assay [2], 244000 M⁻¹ s⁻¹. Besides, the binding result in assay [3], in assay [4], in assay [5] and in assay [6] was “no binding” each time.
